{"source": "patent US20190352642A1", "target": "complement C1q (in Hamster complement, Abcham Ab155111) (hamster)", "assay": "cell-based or functional assay", "data": [{"substance": "h-IgG Fc fragment (Sigma Aldrich), chemically coupled to human red blood cells", "values": [{"measurement": "complement-induced hemolysis of Fc coupled RBC (OD 540 nm, against 100% hemolysis by Tween-20); 6 nm activated Fc (about 5x10^6 molecules per RBC)", "value": 80, "unit": "%"}, {"measurement": "complement-induced hemolysis of Fc coupled RBC; 1.2 nm activated Fc (about 1x10^6 molecules per RBC)", "value": "30 to 40", "unit": "%"}]}, {"substance": "h-IgG (Sigma Aldrich), chemically coupled to human red blood cells (antibody)", "values": [{"measurement": "complement-induced hemolysis of IgG coupled RBC (OD 540 nm, against 100% hemolysis by Tween-20); 6 nm activated IgG (about 5x10^6 molecules per RBC)", "value": 90, "unit": "%"}, {"measurement": "complement-induced hemolysis of IgG coupled RBC; 1.2 nm activated IgG (about 1x10^6 molecules per RBC)", "value": "30 to 40", "unit": "%"}, {"measurement": "complement-induced hemolysis when about 1-2x10^4 IgG molecules were bound per one RBC (not shown)", "value": "85 to 95", "unit": "%"}]}]}
